Values quoted from earlier work as cited in patent publication US20030175285A1, “Molecule of pharmaceutical interest comprising at its n-terminal a glutamic acid or a glutamine in the form of a physiologically acceptable strong acid” (priority 2000, published 2003).

Settings: in 2 months, formulated with adjuvant solution of the Montanide ISA 720 type

## EEGAIVGEI
  spontaneous cyclization to pyroglutamate: 30%
